Patent US20070022485, “Method of preparing transgenic organism with use of methylation and system therefor” (Japan Science Techonology Agency, published 2007)

Legend:
[1] = test system: Tc3 transposase (pRP2302) (Caenorhabditis elegans); test: cell_activity; settings: 5mC at CpG; gene trap events in mouse ES cells
[2] = target: T1, SB transposase N123 (N-terminal 123 aa DNA-binding domain) (Sleeping Beauty (synthetic, …)); test: EMSA; poly(dI-dC) 1 ug, 25 C, 30 min; settings: tags: C-terminal His6 (pET21d, E. coli); label: 32P 5'
T1 chain: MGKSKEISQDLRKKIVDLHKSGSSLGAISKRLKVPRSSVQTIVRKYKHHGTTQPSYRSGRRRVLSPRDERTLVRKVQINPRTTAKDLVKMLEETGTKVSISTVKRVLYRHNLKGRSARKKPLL
Procedure: (§1) This oligonucleotide was first labeled with [γ-³²P]ATP using T4 polynucleotide kinase, and then annealed. DNA fragment of IR/DR-L was digested with HindIII and KpnI for the preparation, and thereafter, the fragment was methylated using SssI methylase or kept unmethylated and then the fragment was treated with an alkaline phosphatase. The digested fragment was extracted using phenol-chloroform, and precipitated with ethanol, and then finally, T4 polynucleotide was used to label with [γ-³²P]ATP. In the presence of poly(dI-dC) (1.0 μg), 0.2 pmol of oligonucleotide probe or 100 pg of IR/DR-L fragment, and 1.0 μl of N123, a nucleoprotein complex was formed in a buffer described previously in Ivics, Z., P. B. Hackett, R. H. Plasterk, and Z. Izsvak. 1997; Cell 91:501-510). After a thirty minute incubation at 25 degrees Celsius, samples were loaded on a 5%-native polyacrylamide gel, and electrophoresed at 150V constant voltage, and in 0.5× Tris-borate-EDTA, 1.5 hours for oligonucleotide probe and 2.5 hours for IR/DR-L fragment. After the gel was dried, the nucleoprotein was visualized by autoradiography.
(§2) In order to clarify the mechanism of transposition which has been enhanced by methylation of CpG, the present inventors have compared the affinity of recombinant SB transposase peptide against the methylated IR/DR and unmethylated IR/DR by EMSA. […]

[3] = target: T1, SB transposase N123 (N-terminal 123 aa …); test: EMSA; shift and competition comparable to unmethylated site; poly(dI-dC) 1 ug, 25 C; settings: tags: C-terminal His6 (pET21d, E. coli); label: 32P 5'
Procedure: as §1, §2

Work on “Tc3 transposon vector pTc3/SAβ-geo, CpG methylated” yielded a binding signal (fold vs unmethylated) [1] of 2.

B1: IR/DR-L outer binding site, unmethylated 34 bp (dsDNA)
DNA 1: TACAGTTGAAGTCGGAAGTTTACATACACTTAAG
DNA 2: CTTAAGTGTATGTAAACTTCCGACTTCAACTGTA
B1: binds [2].

B2: IR/DR-L outer binding site, methylated 34 bp (dsDNA)
DNA 1: TACAGTTGAAGTCGGAAGTTTACATACACTTAAG
DNA 2: CTTAAGTGTATGTAAACTTCCGACTTCAACTGTA
modifications: 5mC at the CpG on both strands (n in SEQ:64 and SEQ:65)
B2: binds [3].
